Among the data in publication PMC8792056 (2022) are interaction as percent of that of DNAJB14-FL and fold lower interaction than with DNAJB14-FL values, retold here.

In assay [1] the target is DNAJB14-ΔDUF, FLAG-tagged (human). Nature of the assay: co-IP; HEK293T cells transfected with FLAG-tagged chaperone (DNAJB12 isoforms alone or with HTT-134Q-GFP or HTT-17Q-GFP; DNAJB14 forms also in cells expressing FUS-WT-YFP or FUS-R521H-YFP), lysed 48 h later in 50 mM HEPES pH 7.9, 0.5% Triton X-100, 5% glycerol, 150 mM NaCl, 2 mM EDTA; anti-FLAG M2 beads 3 h at 4 °C, 7 washes; blot with anti-HSC70/HSP70 for endogenous HSP70.

Assay [2] shares this target. Kind of assay: co-IP; HEK293T cells co-transfected with FLAG-tagged DNAJB14 forms and DNAJB12-FL-mOrange; lysis in 50 mM HEPES pH 7.9, 0.5% Triton X-100, 5% glycerol, 150 mM NaCl, 2 mM EDTA; anti-FLAG M2 beads 3 h at 4 °C, 7 washes; blot with anti-RFP for mOrange, normalised to the FLAG band.

In assay [1], “HSP70 (from UniProt P0DMV8 1-641) (natural protein)” registered an interaction as percent of that of DNAJB14-FL of 50%.

B1: DNAJB12-FL-mOrange (natural protein)
chain: MESNKDEAERCISIALKAIQSNQPDRALRFLEKAQRLYPTPRVRALIESLNQKPQTAGDQPPPTDTTHATHRKAGGTDAPSANGEAGGESTKGYTAEQVAAVKRVKQCKDYYEILGVSRGASDEDLKKAYRRLALKFHPDKNHAPGATEAFKAIGTAYAVLSNPEKRKQYDQFGDDKSQAARHGHGHGDFHRGFEADISPEDLFNMFFGGGFPSSNVHVYSNGRMRYTYQQRQDRRDNQGDGGLGVFVQLMPILILILVSALSQLMVSSPPYSLSPRPSVGHIHRRVTDHLGVVYYVGDTFSEEYTGSSLKTVERNVEDDYIANLRNNCWKEKQQKEGLLYRARYFGDTDMYHRAQKMGTPSCSRLSEVQASLHG
For the molecule B1, the fold lower interaction than with DNAJB14-FL in assay [2] amounted to 3 fold.
